Laboratory results as given in US8906844B2 (SYNTONIX PHARMACEUTICALS, dated 2014).
Positions of bridges follow the written chain, without caps; N, C: chain ends. Non-standard residues stand in square brackets, D forms with d. No end group written: not given here. Pen = CC(C)(S)[C@H](N)C(=O)O; NMeA = CN[C@@H](C)C(=O)O; Sar = CNCC(=O)O

Key:
[1] = biological target: T1, soluble human FcRn (shFcRn) (human, UniProt P55899 24-297; P61769 21-119, biotinylated with Sulfo-NHS-LC-Biotin in the ELISA; amine-coupled to a CM5 chip in SPR); assay: competition ELISA vs human IgG
T1 construct: also called biotinylated shFcRn
Procedure: The wells were coated with 100 μl/well of 1 μg/ml biotinylated-shFcRn in Buffer A. The plate was sealed and incubated at 37° C. for 2 hours. Afterwards, the plate was washed with 200 μl/well of Buffer B (Buffer B: 100 mM MES pH 6, 150 mM NaCl, 0.5% BSA IgG-free (Jackson ImmunoResearch, West Grove, Pa.), 0.05% Tween-20). […] To allow for mixing, the plate was rocked for 2 minutes, sealed and incubated at 37° C. for 2 hours. […] The plate was covered, incubated for 30 minutes at room temperature and washed 4 times with 200 μl/well of ice-cold buffer B. SureBlue TMB substrate solution (100 μl/well, KPL, Gaithersburg, Md.) was added and the plate was allowed to incubate at room temperature until color developed, which took 5 to 10 minutes. Once color developed, 100 μl/well of TMB stop solution (KPL, Gaithersburg, Md.) was added and the absorbance was measured at 450 nm.

[2] = biological target: T1, soluble human FcRn (shFcRn); assay: SPR, pH 6
Procedure: (§1) The following steps were performed to cross-link soluble human or cynomolgus FcRn to the dextran surface of a CM5 sensor chip (Biacore AB, Uppsala, Sweden) by an amine coupling reaction involving 1-ethyl-(3-dimethylaminopropyl)-carbodiimide hydrochloride (EDC) (Biacore AB, Uppsala, Sweden) and N-hydroxysuccinimide (NHS) (Biacore AB, Uppsala, Sweden) as recommended by Biacore (BIAapplications Handbook, version AB, section 4.2, Biacore AB, Uppsala, Sweden). The FcRn protein was diluted in 50 mM sodium acetate, pH 4.5 (Biacore AB, Uppsala, Sweden) to a concentration of 10 to 30 µg/ml and used to coat one flow cell on the sensor chip. Residual sites on the FcRn flow cell were blocked with 1 M ethanolamine hydrochloride pH 8.5 (Biacore AB, Uppsala, Sweden). A control flow cell was blocked with ethanolamine for reference subtraction. For analysis of the monomeric peptides, FcRn was coated to a final density of 4000-5000 response units (RU). For analysis of the peptide dimers, FcRn was coated to a density of 2000-2500 RU. All SPR measurements were performed using a BIACORE 3000 Instrument (Biacore AB Uppsala, Sweden). For measurements done at either pH 6 or pH 7.4, experiments were performed in 50 mM phosphate, 100 mM sodium chloride, 0.01% surfactant P20 (Biacore AB, Uppsala, Sweden).
(§2) A. Representative Procedure for the Determination of Binding Constant of Monomeric Peptides Ten 2-fold dilutions of the peptide were injected over the FcRn-CM5 chip at a rate of 20 µl/min for 2 min. The peptide was dissociated from the chip for 2.5 minutes with buffer. Any remaining peptide was removed from the chip with a 30 second injection of HBS-P buffer (Biacore AB, Uppsala, Sweden) at a rate of 30 µl/min. Sensorgrams were generated and analyzed using BiaEval software version 3.1 (Biacore AB, Uppsala, Sweden). The equilibrium RU observed for each injection was plotted against concentration. The equilibrium K_D values were derived by analysis of the plots using the steady state affinity model included in the BiaEval software.

[3] = biological target: T1, soluble human FcRn (shFcRn); assay: SPR, pH 7.4
Procedure: as §1, §2

Binder	IC50 [1]	Kd [2]	Kd [3]
QRFXTGHFXGLYPCNGP (Pen4; D-Ile9; disulfide; C-terminal amide) [Peptide No. 51]	9.4 µM	2.6 µM	
QRFXTGHFGXLYPCNGP (Pen4; D-His10; disulfide; C-terminal amide) [Peptide No. 42]		2 µM	20 µM
QRFCTGHFXGLYPCNGP (D-Ala9; disulfide; C-terminal amide) [Peptide No. 22]	48 µM		137 µM
QRFC[NMeA]GHFGGLYPCNGP-NH2 (disulfide 4-14; N-terminus assumed; SMILES CC(C)C[C@@H]1NC(=O)CNC(=O)CNC(=O)[C@H](Cc2ccccc2)NC(=O)[C@H](Cc2c[nH]cn2)NC(=O)CNC(=O)[C@H](C)N(C)C(=O)[C@@H](NC(=O)[C@H](Cc2ccccc2)NC(=O)[C@H](CCCNC(=N)N)NC(=O)[C@@H](N)CCC(N)=O)CSSC[C@@H](C(=O)N[C@@H](CC(N)=O)C(=O)NCC(=O)N2CCC[C@H]2C(N)=O)NC(=O)[C@@H]2CCCN2C(=O)[C@H](Cc2ccc(O)cc2)NC1=O) [Peptide No. 196]	169 µM	18 µM	
QRF[Pen]TGHFG[dR]LYPCNGP-NH2 (disulfide 4-14; N-terminus assumed; SMILES CC(C)C[C@@H]1NC(=O)[C@@H](CCCNC(=N)N)NC(=O)CNC(=O)[C@H](Cc2ccccc2)NC(=O)[C@H](Cc2c[nH]cn2)NC(=O)CNC(=O)[C@H]([C@@H](C)O)NC(=O)[C@@H](NC(=O)[C@H](Cc2ccccc2)NC(=O)[C@H](CCCNC(=N)N)NC(=O)[C@@H](N)CCC(N)=O)C(C)(C)SSC[C@@H](C(=O)N[C@@H](CC(N)=O)C(=O)NCC(=O)N2CCC[C@H]2C(N)=O)NC(=O)[C@@H]2CCCN2C(=O)[C@H](Cc2ccc(O)cc2)NC1=O) [Peptide No. 41]	8.1 µM	0.83 µM	8.8 µM
RFVTGHFG[dP]WYPA-NH2 (N-terminus assumed; SMILES CC(C)[C@H](NC(=O)[C@H](Cc1ccccc1)NC(=O)[C@@H](N)CCCNC(=N)N)C(=O)N[C@H](C(=O)NCC(=O)N[C@@H](Cc1c[nH]cn1)C(=O)N[C@@H](Cc1ccccc1)C(=O)NCC(=O)N1CCC[C@@H]1C(=O)N[C@@H](Cc1c[nH]c2ccccc12)C(=O)N[C@@H](Cc1ccc(O)cc1)C(=O)N1CCC[C@H]1C(=O)N[C@@H](C)C(N)=O)[C@@H](C)O) [Peptide No. 246]	60 µM	3.6 µM	
QRF[Pen][NMeA]GHFGGLYPCNGP-NH2 (disulfide 4-14; N-terminus assumed; SMILES CC(C)C[C@@H]1NC(=O)CNC(=O)CNC(=O)[C@H](Cc2ccccc2)NC(=O)[C@H](Cc2c[nH]cn2)NC(=O)CNC(=O)[C@H](C)N(C)C(=O)[C@@H](NC(=O)[C@H](Cc2ccccc2)NC(=O)[C@H](CCCNC(=N)N)NC(=O)[C@@H](N)CCC(N)=O)C(C)(C)SSC[C@@H](C(=O)N[C@@H](CC(N)=O)C(=O)NCC(=O)N2CCC[C@H]2C(N)=O)NC(=O)[C@@H]2CCCN2C(=O)[C@H](Cc2ccc(O)cc2)NC1=O) [Peptide No. 213]	5.5 µM	1 µM	
QRF[Pen]TGHF[dF]GPYPCNGP-NH2 (disulfide 4-14; N-terminus assumed; SMILES C[C@@H](O)[C@@H]1NC(=O)[C@@H](NC(=O)[C@H](Cc2ccccc2)NC(=O)[C@H](CCCNC(=N)N)NC(=O)[C@@H](N)CCC(N)=O)C(C)(C)SSC[C@@H](C(=O)N[C@@H](CC(N)=O)C(=O)NCC(=O)N2CCC[C@H]2C(N)=O)NC(=O)[C@@H]2CCCN2C(=O)[C@H](Cc2ccc(O)cc2)NC(=O)[C@@H]2CCCN2C(=O)CNC(=O)[C@@H](Cc2ccccc2)NC(=O)[C@H](Cc2ccccc2)NC(=O)[C@H](Cc2c[nH]cn2)NC(=O)CNC1=O) [Peptide No. 155]	39 µM	18.3 µM	
QRFVTGHFGXLYPANGP (D-Pro10; unbridged; C-terminal amide) [Peptide No. 157]	195 µM	16 µM	
QRFVTGHFGXWYPINGP (D-Pro10; unbridged; C-terminal amide) [Peptide No. 190]	49 µM	4.2 µM	
QRFXTGHFXXLYPCNGP (Pen4; D-Phe9; D-Pro10; disulfide; C-terminal amide) [Peptide No. 150]	5.9 µM	0.72 µM	
QRFXTGHFXXLYPCNGP (Pen4; D-Pro9; D-Pro10; disulfide; C-terminal amide) [Peptide No. 152]	21 µM	3.3 µM	
QRFCTGHFGXLYPCNGP (D-Ala10; disulfide; C-terminal amide) [Peptide No. 23]			184 µM
QRFXTGHFXGLYPCNGP (Pen4; D-Pro9; disulfide; C-terminal amide) [Peptide No. 48]	5 µM	0.79 µM	21 µM
QRFXTXHFGGLYPCNGP (Pen4; Sar6; disulfide; C-terminal amide) [Peptide No. 108]	> 125 µM	88 µM	
QRFXTGHFGXLYPCNGP (Pen4; D-Ile10; disulfide; C-terminal amide) [Peptide No. 43]	18 µM	2.2 µM	41 µM

More lines, now with the values ahead:

IC50 [1]	Kd [2]	Kd [3]	Binder
3.2 µM	0.23 µM		QRFXTGHFXGXYPCNGP (Pen4; D-Ala9; NMeLeu11; disulfide; C-terminal amide) [Peptide No. 154]
2.1 µM	0.059 µM	0.28 µM	RFXTGHFGGXYPCNGP (Pen3; NMeLeu10; disulfide; C-terminal amide) [Peptide No. 146]
1 µM	0.058 µM	0.35 µM	RF[Pen]TGHFG[Sar]YPCNGP-NH2 (disulfide 3-12; N-terminus assumed; SMILES C[C@@H](O)[C@@H]1NC(=O)[C@@H](NC(=O)[C@H](Cc2ccccc2)NC(=O)[C@@H](N)CCCNC(=N)N)C(C)(C)SSC[C@@H](C(=O)N[C@@H](CC(N)=O)C(=O)NCC(=O)N2CCC[C@H]2C(N)=O)NC(=O)[C@@H]2CCCN2C(=O)[C@H](Cc2ccc(O)cc2)NC(=O)CN(C)C(=O)CNC(=O)[C@H](Cc2ccccc2)NC(=O)[C@H](Cc2c[nH]cn2)NC(=O)CNC1=O, printed RF-Pen-TGHFG-Sar-YPCNGP (no Leu after Sar)) [Peptide No. 147]
2.8 µM	0.51 µM		QRFXTGHFXGLYPCNGP (Pen4; D-Phe9; disulfide; C-terminal amide) [Peptide No. 52]
	0.58 µM	4.9 µM	QRFXTGHFXGLYPCNGP (Pen4; D-Asp9; disulfide; C-terminal amide) [Peptide No. 47]
1.3 µM	0.24 µM		QRFXTGHFXGXYPCNGP (Pen4; D-Phe9; NMeLeu11; disulfide; C-terminal amide) [Peptide No. 153]
1.6 µM	0.086 µM		QRFXTGHFGGXYPCNGP (Pen4; NMeLeu11; disulfide; C-terminal amide) [Peptide No. 113]
1.4 µM	0.23 µM		QRFXTGHFGXLYPCNGP (Pen4; D-Pro10; disulfide; C-terminal amide) [Peptide No. 40]
3.6 µM	0.41 µM		QRFXTGHFXGLYPCNGP (Pen4; D-His9; disulfide; C-terminal amide) [Peptide No. 50]
0.62 µM	0.044 µM		RFXTGHFXXYPC (Pen3; X8 = 3(R)-amino-2-oxo-1-azepine acetic acid; NMeLeu9; disulfide; C-terminal amide) [Peptide No. 239]
1 µM	0.068 µM		QRFXTGHFGXWYPCNGP (Pen4; Sar10; disulfide; C-terminal amide) [Peptide No. 238]
